Measurements taken from publication PMC4447404.
“And” between values parts separate entries of the source, which are not always exact repeats. Equal entries are not always repeated.

These substances were tested on DnaA-his (Bacillus subtilis) (assay: IDAP-Seq (affinity pull-down)). Details: 550 nM DnaA, 40 mM HEPES-KOH pH 7.6, 150 mM K-glutamate, 2.5 mM ATP or ADP, 10 mM Mg acetate, 0.2 mM DTT, 50 ug/ml BSA, 0.1 mM EDTA, 20% glycerol, 4% sucrose, 0.2 mg/ml ….

Question: Which binding signal (fold ATP/ADP DNA recovered) does the source give for yhdF internal here?
Answer: 24

Same assay, conditions: 40 mM HEPES-KOH pH 7.6, 150 mM K-glutamate, 2.5 mM ATP or ADP, 10 mM Mg acetate, 0.2 mM DTT, 50 ug/ml BSA, 0.1 mM EDTA, 20% glycerol, 4% sucrose, 0.2 mg/ml …

Question: With yopH internal (peak 19) as the substance, how does the Kd read?
Answer: 4900 nM and 5000 nM

Question: codV internal (peak 9) was tested. Which Kd did it give?
Answer: 1100 nM and 1900 nM

Question: How did the Kd turn out when ggaA internal (peak 18) was run?
Answer: 2700 nM and 4800 nM

Question: With yhcN internal (peak 15) as the substance, how does the Kd read?
Answer: 19400 nM and 6900 nM

Question: oriC dnaA-dnaN (peak 2) was tested. Which Kd did it give?
Answer: 160 nM and 300 nM

Question: With “ynaI downstream / xynP upstream (peak 11)” as the substance, how does the Kd read?
Answer: 2000 nM and 3000 nM

Question: For yqeG/sda upstream (peak 7), which Kd is on record?
Answer: 150 nM and 510 nM

Question: With oriC upstream of dnaA (peak 1) as the substance, how does the Kd read?
Answer: 210 nM and 330 nM

Question: With yhcA internal (peak 12) as the substance, how does the Kd read?
Answer: 3600 nM and 2800 nM

Question: For yydH internal (peak 17), which Kd is on record?
Answer: 2400 nM and 4600 nM

Question: How did the Kd turn out when yorF internal (peak 13) was run?
Answer: 2000 nM and 3000 nM

Question: How did the Kd turn out when rlmCD internal (peak 20) was run?
Answer: 7500 nM and 6700 nM

Question: Which Kd does the source give for “yydA upstream / yyzF downstream (peak 8)” here?
Answer: 160 nM and 330 nM

Question: trmE upstream / jag downstream (peak 5) was tested. Which Kd did it give?
Answer: 330 nM and 430 nM

Question: Which Kd does the source give for “ywlC upstream / ywlB downstream (peak 6)” here?
Answer: 250 nM and 450 nM

Question: How did the Kd turn out when yvmC/yvmB upstream (peak 14) was run?
Answer: 2200 nM and 4400 nM

Question: How did the Kd turn out when yutJ internal (peak 16) was run?
Answer: 2500 nM and 2900 nM

Question: How did the Kd turn out when gcp/ydiF downstream (peak 4) was run?
Answer: 150 nM and 330 nM

Question: How did the Kd turn out when ywcI/vpr upstream (peak 3) was run?
Answer: 130 nM and 170 nM

Question: How did the Kd turn out when rplB internal (peak 10) was run?
Answer: 1400 nM and 1200 nM
